Results published in PMC6211522.

Columns and labels:
[1] = target: FLAG-tagged PARP-1 in HEK293T cells (UniProt P09874); assay: co-IP (anti-FLAG) and Western blotting, band intensity by ImageJ; conditions: 48 h post-transfection, parent: 1.0
[2] = target: His-tagged mouse PARP-1 protein (Sino Biological) (mouse) (UniProt P11103); assay: SPR; […], CM5 chip; […], HBS-EP (10 mM HEPES pH 7.4, 150 mM NaCl, 3 mM EDTA, 0.005% P20); 1:1 binding model
[3] = target: MHV-68 viral PARP-1-interacting protein (vPIP; ORF49), purified recombinant (murine gammaherpesvirus 68 (MHV-68)); assay: SEC-MALS; 50 mM HEPES pH 7.5, 100 mM NaCl; WTC-050S5 column, DAWN HELEOS II and Optilab T-rEX detectors

UniProt P09874, sequence (P09874 whole entry): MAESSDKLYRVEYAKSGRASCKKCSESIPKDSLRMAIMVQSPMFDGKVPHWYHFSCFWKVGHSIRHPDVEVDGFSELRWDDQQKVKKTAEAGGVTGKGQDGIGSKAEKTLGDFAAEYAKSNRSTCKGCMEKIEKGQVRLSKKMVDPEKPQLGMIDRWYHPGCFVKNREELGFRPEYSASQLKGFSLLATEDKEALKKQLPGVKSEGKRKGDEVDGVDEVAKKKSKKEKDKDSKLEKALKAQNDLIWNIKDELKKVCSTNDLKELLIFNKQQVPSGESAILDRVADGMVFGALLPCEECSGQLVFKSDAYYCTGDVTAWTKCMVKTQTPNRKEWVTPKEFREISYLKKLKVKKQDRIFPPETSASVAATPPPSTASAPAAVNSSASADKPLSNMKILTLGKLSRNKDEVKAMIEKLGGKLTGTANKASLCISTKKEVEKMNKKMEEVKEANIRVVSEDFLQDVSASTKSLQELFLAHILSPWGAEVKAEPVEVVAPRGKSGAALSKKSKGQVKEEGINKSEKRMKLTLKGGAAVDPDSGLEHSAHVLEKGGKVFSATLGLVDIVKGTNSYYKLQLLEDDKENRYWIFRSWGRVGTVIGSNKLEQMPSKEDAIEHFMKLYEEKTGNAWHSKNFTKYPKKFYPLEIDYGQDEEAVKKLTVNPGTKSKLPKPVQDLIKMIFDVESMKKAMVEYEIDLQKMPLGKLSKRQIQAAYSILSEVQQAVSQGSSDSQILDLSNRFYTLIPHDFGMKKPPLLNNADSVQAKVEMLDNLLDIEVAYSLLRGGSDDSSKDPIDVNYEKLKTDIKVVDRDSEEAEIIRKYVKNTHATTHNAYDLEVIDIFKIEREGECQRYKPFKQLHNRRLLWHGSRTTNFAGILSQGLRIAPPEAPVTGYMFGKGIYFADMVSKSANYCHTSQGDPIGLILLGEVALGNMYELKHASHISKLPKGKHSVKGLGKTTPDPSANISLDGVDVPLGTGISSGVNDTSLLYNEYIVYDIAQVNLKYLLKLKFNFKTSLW
UniProt P11103, sequence (P11103 whole entry): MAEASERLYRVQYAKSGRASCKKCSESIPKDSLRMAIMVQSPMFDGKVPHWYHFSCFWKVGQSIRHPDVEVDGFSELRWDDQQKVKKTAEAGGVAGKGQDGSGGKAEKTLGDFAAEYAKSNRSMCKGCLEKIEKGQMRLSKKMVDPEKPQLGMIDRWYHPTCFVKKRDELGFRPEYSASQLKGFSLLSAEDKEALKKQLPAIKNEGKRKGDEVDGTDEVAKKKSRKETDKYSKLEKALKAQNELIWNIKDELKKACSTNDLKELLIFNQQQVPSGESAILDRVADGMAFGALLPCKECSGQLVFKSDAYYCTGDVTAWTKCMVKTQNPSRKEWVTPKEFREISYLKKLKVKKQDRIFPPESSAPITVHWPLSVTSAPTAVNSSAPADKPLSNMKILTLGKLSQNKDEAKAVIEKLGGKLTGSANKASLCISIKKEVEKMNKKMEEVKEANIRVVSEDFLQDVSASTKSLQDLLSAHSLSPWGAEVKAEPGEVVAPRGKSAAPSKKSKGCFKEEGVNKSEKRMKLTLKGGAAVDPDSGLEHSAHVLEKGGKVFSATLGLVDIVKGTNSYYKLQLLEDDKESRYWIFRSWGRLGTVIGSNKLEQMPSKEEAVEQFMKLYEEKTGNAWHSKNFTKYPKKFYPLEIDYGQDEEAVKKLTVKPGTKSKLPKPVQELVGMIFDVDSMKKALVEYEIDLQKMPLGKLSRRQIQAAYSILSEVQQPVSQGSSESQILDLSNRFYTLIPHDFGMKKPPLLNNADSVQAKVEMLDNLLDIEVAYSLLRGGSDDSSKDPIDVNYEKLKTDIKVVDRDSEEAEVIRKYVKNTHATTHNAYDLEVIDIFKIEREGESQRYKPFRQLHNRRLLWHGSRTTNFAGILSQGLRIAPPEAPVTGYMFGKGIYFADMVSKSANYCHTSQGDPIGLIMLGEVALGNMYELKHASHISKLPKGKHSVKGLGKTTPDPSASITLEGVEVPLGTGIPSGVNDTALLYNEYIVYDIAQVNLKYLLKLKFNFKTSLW

| Substance | ratio to parent [1] | Kd [2] [nM] | stoichiometry N [3] |
| --- | --- | --- | --- |
| MYC-tagged vPIP wild type in HEK293T cells H47A; D50A | 1.4 |  |  |
| ORF49_(KSHV), purified recombinant (natural protein) |  | 410 |  |
| MYC-tagged vPIP wild type in HEK293T cells F5A; S12A; T16A; H47A; D50A | 0.3 |  |  |
| MHV-68 viral PARP-1-interacting protein (vPIP; ORF49), purified recombinant (natural protein) |  | 930 | 2 |
| MYC-tagged vPIP wild type in HEK293T cells F5A; S12A; T16A | 0.5 |  |  |
